Results as given in PMC5363614, “Secreted protein acidic and rich in cysteine (SPARC) induces lipotoxicity in neuroblastoma by regulating transport of albumin complexed with fatty acids” (Oncotarget, 2016).

Target: T1, Bovine serum albumin (bovine, UniProt P02769 25-607)
T1 construct: Serum albumin, bovine (BSA); Unlabelled BSA used as analyte in SPR; also called BSA; source: bought: Sigma-Aldrich
Assay: SPR; BIAcore 3000; histidine-tagged SPARC immobilised on Sensor NTA chip to about 100 RU; BSA as analyte, room temperature, 20 ul/minute, 5 minutes association, 5 minutes dissociation; global Langmuir fitting
Conditions: both partners purified

T1 sequence (P02769 25-607): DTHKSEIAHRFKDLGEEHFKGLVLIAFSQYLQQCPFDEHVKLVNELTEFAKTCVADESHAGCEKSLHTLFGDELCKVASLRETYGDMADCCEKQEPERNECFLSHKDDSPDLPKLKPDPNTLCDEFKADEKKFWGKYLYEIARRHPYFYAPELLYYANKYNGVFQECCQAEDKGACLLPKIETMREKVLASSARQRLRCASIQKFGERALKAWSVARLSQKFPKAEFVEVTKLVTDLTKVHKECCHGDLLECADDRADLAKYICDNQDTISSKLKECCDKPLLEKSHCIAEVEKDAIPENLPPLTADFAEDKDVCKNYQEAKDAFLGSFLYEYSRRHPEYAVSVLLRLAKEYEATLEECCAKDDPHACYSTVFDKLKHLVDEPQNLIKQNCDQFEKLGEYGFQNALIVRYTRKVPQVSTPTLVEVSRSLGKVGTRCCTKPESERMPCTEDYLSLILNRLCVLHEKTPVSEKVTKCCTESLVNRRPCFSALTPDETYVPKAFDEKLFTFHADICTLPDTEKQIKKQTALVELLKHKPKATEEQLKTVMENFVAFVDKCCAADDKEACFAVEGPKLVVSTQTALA

B1: Recombinant human SPARC (secreted protein acidic and rich in cysteine), histidine-tagged (natural protein, UniProt P09486 18-303, looked up)
chain: APQQEALPDETEVVEETVAEVTEVSVGANPVQVEVGEFDDGAEETEEEVVAENPCQNHHCKHGKVCELDENNTPMCVCQDPTSCPAPIGEFEKVCSNDNKTFDSSCHFFATKCTLEGTKKGHKLHLDYIGPCKYIPPCLDSELTEFPLRMRDWLKNVLVTLYERDEDNNLLTEKQKLRVKKIHENEKRLEAGDHPVELLARDFEKNYNMYIFPVHWQFGQLDQHPIDGYLSHTELAPLRAPLIPMEHCTTRFFETCDLDNDKYIALDEWAGCFGIKQKDIDKDLVI
notes: Secreted protein acidic and rich in cysteine (SPARC), human, recombinant; The histidine tag is named for the SPR experiment; also called rhSPARC; histidine-tagged recombinant SPARC; source: HEK293 cells transfected with SPARC, serum-free conditioned media; purified as described [25]
Work on B1 yielded a Kd of 18.9 µM.
